B1: C8orf76 (parent)
chain: LYLQLAICSSLQNLEKTIFCLQKL

Variants of: B1
Test: protein stability index of a GFP-peptide fusion (GPS, HEK-293T) (PSI 1-6); higher = more stable
Settings: c terminus: a fixed tail appended
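Further: lentivirally expressed fusions sorted by FACS into six bins by GFP to DsRed ratio, PSI derived from sequencing read proportions per bin multiplied by bin number.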

Variant	protein stability index
LYLQLAICSSLQNLEKTIYCLQKL [F19Y]	4.28
LYLQLAICSSLQNLEKTIACLQKL [F19A]	2.89
LYLQLAICSSLQNTEKTIFCLQKL [L14T]	1.65
LYLQLAICSSLQNIEKTIFCLQKL [L14I]	2.96
LYLQLAICSSLQNHEKTIFCLQKL [L14H]	2.93
LYLQLAICSSLQNGEKTIFCLQKL [L14G]	2.24
LYLQLAICSSLQNDEKTIFCLQKL [L14D]	3.85
LYLQLAICSSLQNMEKTIFCLQKL [L14M]	2.22
LYLQLAICSSLQNAEKTIFCLQKL [L14A]	2.33
LYLQLAICSSLQNNEKTIFCLQKL [L14N]	2.84
LYLQLAICSSLQNKEKTIFCLQKL [L14K]	2.9
LYLQLAICSSLQNPEKTIFCLQKL [L14P]	2.32
LYLQLAICSSLQNEEKTIFCLQKL [L14E]	1.9
LYLQLAICSSLQNLETTIFCLQKL [K16T]	4.26
LYLQLAICSSLQNLEYTIFCLQKL [K16Y]	2.26
LYLQLAICSSLQNLECTIFCLQKL [K16C]	4.77
LYLQLAICSSLQNLEQTIFCLQKL [K16Q]	3.17
LYLQLAICSSLQNLESTIFCLQKL [K16S]	2.67
LYLQLAICSSLQNLENTIFCLQKL [K16N]	2.47
LYLQLAICSSLQNLEITIFCLQKL [K16I]	2.44
LYLQLAICSSLQNLEPTIFCLQKL [K16P]	2.32
LYLQLAICSSLANLEKTIFCLQKL [Q12A]	2.38
LYLQLAICSSLFNLEKTIFCLQKL [Q12F]	2.75
LYLQLAICSSLKNLEKTIFCLQKL [Q12K]	3.08

Variant	protein stability index
LYLQLAICSSLENLEKTIFCLQKL [Q12E]	2.29
LYLQLAICSSLGNLEKTIFCLQKL [Q12G]	2.58
LYLQLAICSSLMNLEKTIFCLQKL [Q12M]	3.9
LYLQLAICSSLHNLEKTIFCLQKL [Q12H]	3.42
LYLQLAICSSLNNLEKTIFCLQKL [Q12N]	2.07
LYLQLAICSSLPNLEKTIFCLQKL [Q12P]	2.52
LYLQLAICSSLWNLEKTIFCLQKL [Q12W]	3.78
LYLQLAICSSLVNLEKTIFCLQKL [Q12V]	2.3
LYLQLAICSSLTNLEKTIFCLQKL [Q12T]	4.52
LYLQLAICSSIQNLEKTIFCLQKL [L11I]	2.28
LYLQLAICSSQQNLEKTIFCLQKL [L11Q]	2.35
LYLQLAICSSPQNLEKTIFCLQKL [L11P]	5.02
LYLQLAICSSMQNLEKTIFCLQKL [L11M]	3.61
LYLQLAICSSKQNLEKTIFCLQKL [L11K]	3.11
LYLQLAICSSWQNLEKTIFCLQKL [L11W]	1.77
LYLQLAICSSFQNLEKTIFCLQKL [L11F]	1.39
LYLQLAICSSCQNLEKTIFCLQKL [L11C]	1.8
LYLQLAICSSEQNLEKTIFCLQKL [L11E]	4.55
LYLQLAICSSDQNLEKTIFCLQKL [L11D]	2.17
LYLQLAICSSTQNLEKTIFCLQKL [L11T]	1.82
LYLQLAICSSLQNLEKTIFCLQDL [K23D]	2.02
LYLQLAICSSLQNLEKTIFCLQGL [K23G]	3.17
LYLQLAICSSLQNLEKTIFCLQQL [K23Q]	4.24
LYLQLAICSSLQNLEKTIFCLQPL [K23P]	2.54

Variant	protein stability index
LYLQLAICSSLQNLEKTIFCLQWL [K23W]	3.62
LYLQLAICSSLQNLEKTIFCLQRL [K23R]	3.49
LYLQLAICSSLQNLEKTIFCLQTL [K23T]	2.15
LYLQLAICSSLQNLEKTIFCLQYL [K23Y]	3.53
LYLQLAICSSLQNLEKTIFCLQSL [K23S]	1.89
LYLQLAICSSLQNLEKTIFCLQFL [K23F]	2.92
LYLQLAICSSLQNLEKTIFCLQIL [K23I]	2.72
LYLQLAICSSLQNLEKTIFCLQNL [K23N]	2.11
LYLQLAICSSLQNLEKTIFCLQLL [K23L]	2.27
LYLQLAICSSLQNLEKTIFCLQML [K23M]	1.58
LYLQLAICSSLQNLEKTRFCLQKL [I18R]	2.41
LYLQLAICSSLQNLEKTYFCLQKL [I18Y]	2.94
LYLQLAICSSLQNLEKTPFCLQKL [I18P]	4.2
LYLQLAICSSLQNLEKTHFCLQKL [I18H]	2.6
LYLQLAICSSLQNLEKTEFCLQKL [I18E]	1.79
LYLQLAICSSLQNLEKTWFCLQKL [I18W]	3.03
LYLQLAICSSLQNLEKTMFCLQKL [I18M]	1.11
LYLQLAICSSLQNLEKTKFCLQKL [I18K]	2.22
LYLQLAICSSLQNLEKTNFCLQKL [I18N]	5.27
LYLQLAICSSLQNLEKTFFCLQKL [I18F]	2.57
LYLQLAICSSLQNLEKTQFCLQKL [I18Q]	2.44
LYLQLAICSSLQNLEKTLFCLQKL [I18L]	2.46
LYLQLAICSSLQNLEKFIFCLQKL [T17F]	3.63
LYLQLAICSSLQNLEKYIFCLQKL [T17Y]	3.47

Variant	protein stability index
LYLQLAICSSLQNLEKQIFCLQKL [T17Q]	3.45
LYLQLAICSSLQNLEKNIFCLQKL [T17N]	2.46
LYLQLAICSSLQNLEKPIFCLQKL [T17P]	1.98
LYLQLAICSSLQNLEKVIFCLQKL [T17V]	2.84
LYLQLAICSSLQNLEKLIFCLQKL [T17L]	4
LYLQLAICSSLQNLEKCIFCLQKL [T17C]	2.55
LYLQLAICSSLQNLEKGIFCLQKL [T17G]	4.96
LYLQLAICSSLQNLEKMIFCLQKL [T17M]	3.56
LYLQLAICSSLQNLEKWIFCLQKL [T17W]	4.22
LYLQLAICSSLQNLEKHIFCLQKL [T17H]	2.34
LYLQLAICSSLQNLEKDIFCLQKL [T17D]	2.31
LYLQLAICSSLQNLEKTIFCLQKW [L24W]	2.79
LYLQLAICSSLQNLEKTIFCLQKA [L24A]	2.13
LYLQLAICSSLQNLEKTIFCLQKS [L24S]	1.49
LYLQLAICSSLQNLEKTIFCLQKI [L24I]	2.35
LYLQLAICSSLQNLEKTIFCLQKP [L24P]	4.07
LYLQLAICSSLQNLEKTIFCLQKE [L24E]	1.75
LYLQLAICSSLQNLEKTIFCLQKQ [L24Q]	3.56
LYLQLAICSSLQNLEKTIFCLQKF [L24F]	3.39
LYLQLAICSSLQNLEKTIFCLQKC [L24C]	3.89
LYLQLAICSSLQNLEKTIFCLQKD [L24D]	4.2
LYLQLAICSSLQNLEKTIFCLQKK [L24K]	3.43
